# Laboratory results: the supplement of paper PMC12636428
# Test system: Saccharomyces cerevisiae
# Assay: transcriptional activation domain activity (GFP:mCherry ratio, weighted mean of sorted bins, harmonized to initial dataset scale) (arbitrary fluorescence ratio units); higher = stronger transcriptional activation
# Conditions: beta-estradiol 1 µM; induction time 4 h
# Outline: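 Barcoded tiles were sequenced after cells were sorted into 8 bins by GFP:mCherry ratio. Before sorting, cultures had been diluted 1:5 into SC with 1 uM beta-estradiol and held for 4 hours at 30 °C. The tiles were fused to an estradiol-inducible synthetic transcription factor and integrated at URA3 in yeast diploids carrying a GFP reporter. Activation activity is the read-weighted mean of bin median fluorescence, averaged over barcodes and linearly mapped onto the initial dataset scale, and tiles under 50 reads were left out.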
row,Sequence,transcriptional activation domain activity
1,PMAVTLIERNVILGLRNAKTTDQLNTLINSLPFNNTSMLFLRLAMTKLSVIWS,59900
2,PMGGDPLLDQAFYGADDFFFPPEGCDNNMLYPQTATSWNVLPPQAMQPAPTYV,63900
3,PMRLHVDHVHVVGRPFLWYIIVAMCDNVTHVVLSFSGLTYYTTSRWFESIPYR,61200
4,PMSDQHKSQLLPITSVRLRLKLIVHWIHGFKTQWWFRVFFFQKYLRSILFDPF,37700
5,PNDDFLLDCEEWGLNQLFGDEQFSNNINDLSDDLLALIPDWSFIPPSEDPWGL,147000
6,PNGLMDPVLSTTNVSATSSNDNSANNSISSPEYTFGQFSMDSPHRTDATNTPI,23000
7,PNIHSLHSLYTFRFLHIHSFHNLFFLPFFYFLYSLCFLHLPCFLSFLRFLHLL,63900
8,PNIILPLNPCRSGEFCELYPSAANLWAMFLHLILFCMQLPFILSIPFWLLFPV,52900
9,PNLLMPCPWRSMDLCIFFRLAVGFFFLFLFPLSLSLPPSPFFFLFFSTPVIMV,62500
10,PNRRSMGKQDPYCAARLGKEAKKTATDRRGGQTPKWDQELRFTVHDSPDYHQL,64200
11,PNSSTSMDWLDNVIYTNRFVSGDDGSNSKTKNLDSNMFSNDFNFENQFDEQVS,91700
12,PNSTGDDPSRLRRAHRKSPGGCQSCKRRRVKCDEKVSCSNCRRRREHCHAGQQ,56900
13,PNVFGLMLFELGLGFWIKTDYYYMLICLSVSSLVFRAEISLLSGLLVLQDIFL,66400
14,PNWESLFGLMDFVRIRAEKLQWHLFLSLIRFMEAMIVRYMANYDRRTLHNSTE,44300
15,PNYEQHPAPAPAPAPGNKPEEHHEEKPEEHHEEKPSYEQHPAPAPAYQANAPH,19400
16,PPASTHTSVTSSPPVNDQWKDYALVLVRLMPMDKLSKPSFRYIIKSTYVRAVC,58000
17,PPCLKLAGWLAFVVGSFCQSTNLVVIQISQNNWDCFSIWRTLILLVIFFSLPA,58500

row,Sequence,transcriptional activation domain activity
1,PPEEEAEEAVGAEKAEEAEEAEEAEEAVEEEPPKAANGRRSRAAAASAAKSSN,35500
2,PPGNRTGAVTIGDESINGSEMPDFSLDLVSNDRQTGLEALDYDIHNYFPQHSE,75200
3,PPGRVAPDAESVGYVLHSRLLTLLFPLFFFSLPLYNSSLLAGWAGWGLMMITF,62900
4,PPILVWMRYNAFFILYPLGAGSECLLTFFSLDEAHAWWPHYALLLKIILLIYI,73800
5,PPLSSPFLCFPLCFPLPPLPLFPPSPLFPLSSPPSLFPFPPLPLFNPFLPSLC,29800
6,PPPARAARPARRRGRGCQRRMSSRLCRGREGGGGGGVRLPVQVGVVMVVQLGR,73100
7,PPPHLQLIYSCKAVRSSIQIFFDRAFIFKCSSSLWVCIVMFSRWLRTIRLFVW,85600
8,PPPKGSDAALAAPPPPPGASGAPPPPPPKGSEAAAAAPPPPPPADASGAPPPP,26100
9,PPPPPPPGAMGGLPPPPPPPPPPPGGPGGGPPPPPPPPPGGPGGPPPPPPPPG,35100
10,PPPPPPPPPGPSPARFAPPPAPPPPPPPSGRPAPPPAPPPPPPPPPPAFGGGP,17000
11,PPPPPPPPPPAGRGGGAPPPHAISGGAPPPPPTPPPPPPPPPPPGVVPVPPPP,41600
12,PPPPPPPPPPGRGGAGHPPPPPPPPPPPAGGGGGPPPPPPPPPPSGGAPPPPP,< 6570
13,PPPPPPPPPPPLSLLTTAIPPPPPPPPPLGGGPPPPPPPPPGPGGPPPPPPPP,30700
14,PPSLVDLVANTIAACHSETTPETVSLQIVKALLSLVLSSTILVHHSSLLKAVR,50700
15,PPWVDDCNPFLTDVYYLGSLLKRTFFVVYELTYKDFLFLLTLPVHRTPFLLCN,50900
16,PPYALGYFGESDHGFCSLKVDLVYSNFMIYYLIVVPRLLVYFYCLLILFFIAM,61600
17,PPYVVAPPVVCPYSPLIILFYMVTYFFLHCFRGLMGWLQFLALLLQSLMVGIP,28900
